Experimental findings from FireProtDB (doi:10.1021/bi500238q) are described below.

Sequences and labels used below:
B1: Dihydrofolate reductase, Q5KZ26 (parent)
chain: MISHIVAMDENRVIGKDNRLPWHLPADLAYFKRVTMGHAIVMGRKTFEAIGRPLPGRDNVVVTRNRSFRPEGCLVLHSLEEVKQWIASRADEVFIIGGAELFRATMPIVDRLYVTKIFASFPGDTFYPPISDDEWEIVSYTPGGKDEKNPYEHAFIIYERKKAK

In the series the parent is B1. Particulars: Geobacillus kaustophilus (strain HTA426); pH 7; Thermal; CD; Potassium Phosphate Buffer 10 mM; structure 1ZDR; whole UniProt chain shown.

What is called Tm is the temperature at the midpoint of the melting transition. Regarding MISHIVAMDENRVIGKDNRLPWHLPADLAYFKRVTMGHAIVMGRKTFEAIGRPLPGRDNVVVTRNRSFRPEGCLVLHSLEEVKQWIASRADEVFIIGGAELFRATMPIVDRLYVTKIFASFEGDTFYPDISDDEWEIVSYTPGGKDEKNPYEHAFIIYERKKAK [P122E P129D], the Tm stood at 65 °C and the “change of melting temperature, mutant - wild type (higher = more stable)” value is -1.2 °C.
The corresponding values for MISHIVAMDENRVIGKDNRMPWHLPADLAYFKRVTMGHAIVMGRKTFEAIGRPLPGRDNVVVTRNRSFRPEGCLVLHSLEEVKQWIASRADEVFIIGGAELFRQTMPIVDRLYVTKIFASFPGDTFYPPISDDEWEIVSYTPGGKDEKNPYEHAFIIYERKKAK [L20M A104Q] are 61.1 °C and -5.1 °C.
On the same counts, the results for MISHIVAMDENRVIGKDNRLPWHLPADLAYFKRVTMGHAIVMGRKTFEAIGRPLPGRDNVVVTRNRSFRPEGCLVLHSLEEVKQWIASRADEVFIIGGAELFRATMPIVDRLYVTKIFASFPGDTFYPDISDDEWEIVSYTPGGKDEKNPYEHAFIIYERKKAK [P129D] are 64.6 °C and -1.6 °C.
As to MISHIVAMDENRVIGKDNRMPWHLPADLAYFKRVTMGHAIVMGRKTFEAIGRPLPGRDNVVVTRNRSFRPEGCLVLHSLEEVKQWIASRADEVFIIGGAELFRATMPIVDRLYVTKIFASFPGDTFYPPISDDEWEIVSYTPGGKDEKNPYEHAFIIYERKKAK [L20M], the Tm was 61.4 °C and the “change of melting temperature, mutant - wild type (higher = more stable)” value is -4.8 °C.
On the same counts, the results for MISHIVAMDENRVIGKDNRLPWHLPADLAYFKRVTMGHAIVMGRKTFEAIGRPLPGRDNVVVTRNRSFRPEGCLVLHSLEEVKQWIASRADEVFIIGGAELFRATMPIVDRLYVTKIFASFEGDTFYPPISDDEWEIVSYTPGGKDEKNPYEHAFIIYERKKAK [P122E] are 65.3 °C and -0.9 °C.
